US7919464B2, “Use of a peptide that interacts with αvβ3 integrin of endothelial cell” (Kyungpook National University Industry-Academic Cooperation …, priority 2003, dated 2011)

Assays:
[1] = test system: β3/293 cells (HEK293 cells transfected with human β3 integrin expression vector); assay: Adhesion of β3/293 cells to βig-h3 and its inhibition; type: cell-based; details: plate coated with βig-h3
Protocol: (§1) To construct a human β3 integrin expression vector, RT-PCR was performed using a human placenta poly(A)^+ RNA as a template, thereby generating a 2.4-kb β3 cDNA (Chandrika, S. K. et al., J. Biol. Chem., 272:16390-16397, 1997). The amplified β3 cDNA was digested with HindIII/XbaI, and then cloned into the pcDNA3 vector (Invitrogen). The resulting vector was named “β3/pcDNA3”. Then, 1 μg of the β3/pcDNA3 vector was introduced into HEK293 cells (ATCC, catalog No. CRL 1573) using lipofectamin (Gibco). A control was introduced with a pcDNA3 vector containing no human β3 cDNA. Since all the vectors contain a G418 selection marker, the stable transfected cells were screened using 1 mg/ml of G418. The cell transfected with the β3/pcDNA3 vector was named “β3/293”, and the cell transfected with the pcDNA3 vector (control) was named “pc/293”. Each of the screened transfectants was incubated in DMEM (Dulbecco's Modified Eagle Medium) containing 10% FBS, streptomycin and penicillin. Then, cell adhesion assay was performed in the same manner as in Example 2.
In the present invention, to further confirm that βig-h3 mediates endothelial cell adhesion through the αvβ3 integrin, cell adhesion assay using antibodies that block the function of integrins was performed in the same manner as in Example 3-1. […]

[2] = test system: pc/293 cells (HEK293 cells transfected with pcDNA3 vector); assay: Adhesion of pc/293 cells to βig-h3; type: cell-based, human; details: plate coated with βig-h3; control transfectant
Protocol: as §1

HUVECs = HUVECs adhesion to plates coated with βig-h3, its fas-1 domains or mutants; type: cell-based, human; details: 10 μg/ml protein coated on plate; attached cells by absorbance at 405 nm; control BSA
Protocol: Cell adhesion assay was performed according to the method described by Kim, J.-E. et al., J. Biol. Chem., 277:4615946165, 2002. For this purpose, 10 μg/ml of each of the recombinant proteins (βig-h3 His-β-b, βig-h3 D-I, βig-h3 D-II, βig-h3 D-III and βig-h3 D-IV) prepared in Example 1 was placed into a flat-bottomed 96-well ELISA (enzyme-linked immunosorbent assay) plate (Costar, Corning Inc., NY) and then incubated overnight at 4° C., to coat the surface of the plate. As a control, 2% BSA was coated on the plate. Then, the plate was treated with PBS (phosphate-buffered saline) containing 2% BSA, and blocked at room temperature for one hour.
Meanwhile, HUVECs (human umbilical vein endothelial cells; Clonetics, San Diego, Calif.) were incubated in EGM medium (Clonetics, San Diego, Calif.) containing 2% FBS (Fetal Bovine Serum) under a condition of 37° C. and 5% CO2. The incubated cells were suspended in medium at a density of 3×10^5 cells/ml, and 0.1 ml of the cell suspension was added to each well of the plate. Next, the cells were incubated at 37° C. for 30 minutes and washed one time with PBS buffer to remove cells which had not been attached to the plate. Attached cells were added with 50 mM citrate buffer (pH 5.0) containing 3.75 mM p-nitrophenyl-N-acetyl β-D-glycosaminide and 0.25% Triton X-100, and incubated at 37° C. for one hour. Thereafter, 50 mM glycine buffer (pH 10.4) containing 5 mM EDTA was added to block the activity of the enzyme. The absorbance was measured at a 405-nm in a Bio-Rad model 550 microplate reader. Here, the higher the number of cells adhered to the plate, the higher the absorbance.
Each of the deletion mutants was generated by PCR using a cDNA template encoding the fourth fas-1 domain (SEQ ID NO: 5) (Kim, J.-E. et al., J. Biol. Chem., 275:30907-30915, 2000). Each of the PCR-amplified DNA fragments was cloned into the EcoRV/Xhol sites of the pET-29b(+) vector (Novagen; Madison, Wis.). The mutations were confirmed by sequence analysis, and the deletion mutants were expressed and purified according to a prior method (Kim, J.-E., et al., J. Cell. Biochem., 77:169-178, 2000). Thereafter, the cell adhesion activity of each of the deletion mutants was tested in the same manner as in Example 2.
Previously, the present inventors reported that an YH motif, which contains tyrosine-histidine residues highly conserved in the fragment corresponding to amino acids 548-614 of SEQ ID NO: 1, and several leucine and isoleucine residues adjacent to the tyrosine-histidine residues, binds to the αvβ5 integrin (Kim, J.-E., et al., J. Biol. Chem., 277:46159-46165, 2002). Thus, the present inventors suspected that the YH motif may also interact with the αvβ3 integrin to mediate endothelial cell adhesion. For this reason, in the present invention, the tyrosine-histidine residues conserved in the fas-1 domains, and/or the leucine and isolucine residues adjacent to the tyrosine-histidine residues, were substituted in various combinations by alanine or serine (Kim, J.-E., et al., J. Biol. Chem. 277:4615946165, 2002)(see FIG. 4b). The amino acid sequences of the prepared YH motif mutants are shown in SEQ ID NO: 17 to SEQ ID NO: 22. The mutations were confirmed by sequence analysis. Then, the substitution mutants were expressed and purified according to a known method (Kim, J.-E., et al., J. Cell. Biochem., 77:169-178, 2000). The substitution mutants were tested for their cell adhesion activity according to the same manner as in Example 2.

B1: βig-h3: recombinant human βig-h3 protein that expresses all of four fas-1 domains; biotinylated form used in binding assay (protein)
chain: YQRKICGKSTVISYECCPGYEKVPGEKGCPAALPLSNLYETLGVVGSTTTQLYTDRTEKLRPEMEGPGSFTIFAPSNEAWASLPAEVLDSLVSNVNIELLNALRYHMVGRRVLTDELKHGMTLTSMYQNSNIQIHHYPNGIVTVNCARLLKADHHATNGVVHLIDKVISTITNNIQQIIEIEDTFETLRAAVAASGLNTMLEGNGQYTLLAPTNEAFEKIPSETLNRILGDPEALRDLLNNHILKSAMCAEAIVAGLSVETLEGTTLEVGCSGDMLTINGKAIISNKDILATNGVIHYIDELLIPDSAKTLFELAAESDVSTAIDLFRQAGLGNHLSGSERLTLLAPLNSVFKDGTPPIDAHTRNLLRNHIIKDQLASKYLYHGQTLETLGGKKLRVFVYRNSLCIENSCIAAHDKRGRYGTLFTMDRVLTPPMGTVMDVLKGDNRFSMLVAAIQSAGLTETLNREGVYTVFAPTNEAFRALPPRERSRLLGDAKELANILKYHIGDEILVSGGIGALVRLKSLQGDKLEVSLKNNVVSVNKEPVAEPDIMATNGVVHVITNVLQPPANRPQERGDELADSALEI
[1]
  adhesion of β3/293 cells to βig-h3: strongly adhered
[2]
  adhesion of pc/293 cells to βig-h3: not adhered
HUVECs
  endothelial cell (HUVECs) adhesion activity: mediated the adhesion of endothelial cells
